# Reference: publication PMC8878332, “The C-Terminal Domain of Staphylococcus aureus Zinc Transport Protein AdcA Binds Plasminogen and Factor H In Vitro” (Pathogens, 2022)
# Target: T1, Human plasminogen (human)
# T1 construct: human plasminogen, 92 kDa, commercial; also called PLG; purified plasminogen; source: bought: Sigma-Aldrich
# Test: ELISA; plasminogen immobilised on plate wells (1 ug in 100 uL PBS), blocked with 1% gelatin; AdcA 0-1 uM in PBS, 1.5 h at 37 C; bound AdcA detected with rabbit anti-AdcA serum; apparent KD from the fit to total binding saturation (GraphPad Prism); MntC run as control; EACA (0.1-10 mM) or NaCl (25-800 mM) added in further panels
# Conditions: both partners purified
# T1 sequence (P00747 20-810): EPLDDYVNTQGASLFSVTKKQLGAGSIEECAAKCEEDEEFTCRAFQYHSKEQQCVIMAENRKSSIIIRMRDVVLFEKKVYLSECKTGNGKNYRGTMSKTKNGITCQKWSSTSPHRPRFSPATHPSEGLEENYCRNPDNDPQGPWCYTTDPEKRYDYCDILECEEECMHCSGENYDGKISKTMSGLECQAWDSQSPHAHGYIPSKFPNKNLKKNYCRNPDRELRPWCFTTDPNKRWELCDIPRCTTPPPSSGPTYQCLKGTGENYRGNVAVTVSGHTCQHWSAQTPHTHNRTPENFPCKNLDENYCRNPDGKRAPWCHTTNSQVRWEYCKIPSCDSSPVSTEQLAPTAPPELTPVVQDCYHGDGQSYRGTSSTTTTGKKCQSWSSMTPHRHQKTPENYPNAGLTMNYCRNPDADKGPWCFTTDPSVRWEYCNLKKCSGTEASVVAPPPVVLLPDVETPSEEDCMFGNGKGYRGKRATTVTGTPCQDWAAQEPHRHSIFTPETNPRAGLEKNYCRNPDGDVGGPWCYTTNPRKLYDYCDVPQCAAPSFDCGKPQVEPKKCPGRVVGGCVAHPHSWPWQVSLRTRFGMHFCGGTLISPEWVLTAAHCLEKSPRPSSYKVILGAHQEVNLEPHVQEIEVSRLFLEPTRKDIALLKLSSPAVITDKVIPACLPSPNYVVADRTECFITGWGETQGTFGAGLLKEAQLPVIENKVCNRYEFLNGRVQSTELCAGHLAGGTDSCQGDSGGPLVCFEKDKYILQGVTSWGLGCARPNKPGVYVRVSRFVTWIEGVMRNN
binder,measurement,value
MntC from Staphylococcus aureus (natural protein) CGTGGKQSSDKSNGKLKVVTTNSILYDMAKNVGGDNVDIHSIVPVGQDPHEYEVKPKDIKKLTDADVILYNGLNLETGNGWFEKALEQAGKSLKDKKVIAVSKDVKPIYLNGEEGNKDKQDPHAWLSLDNGIKYVKTIQQTFIDNDKKHKADYEKQGNKYIAQLEKLNNDSKDKFNDIPKEQRAMITSEGAFKYFSKQYGITPGYIWEINTEKQGTPEQMRQAIEFVKKHKLKHLLVETSVDKKAMESLSEETKKDIFGEVYTDSIGKEGTKGDSYYKMMKSNIETVHGSMK,Kd,14.8 nM
